Residue numbers refer to the chain shown, from its start. Names and notes keep the numbering of the source.
T1: Cynomolgous TSLPR (on HEK293 cells) (Cynomolgous monkey)
T1 construct: also called Cyno-TSLPR-HEK293; HEK-Cyno-TSLPR
T1 chain: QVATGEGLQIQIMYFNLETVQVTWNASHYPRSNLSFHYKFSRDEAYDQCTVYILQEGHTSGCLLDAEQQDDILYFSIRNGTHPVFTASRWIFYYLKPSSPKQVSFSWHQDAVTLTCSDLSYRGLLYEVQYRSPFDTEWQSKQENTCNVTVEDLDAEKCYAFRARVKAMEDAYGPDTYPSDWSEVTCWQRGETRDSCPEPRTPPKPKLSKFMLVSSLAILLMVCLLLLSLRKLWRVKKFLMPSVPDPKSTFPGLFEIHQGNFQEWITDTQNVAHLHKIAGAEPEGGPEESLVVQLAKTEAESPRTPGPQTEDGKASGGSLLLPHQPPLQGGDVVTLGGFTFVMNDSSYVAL

T2: human TSLPR (on cells) (human, UniProt Q9HC73 23-371)
T2 sequence: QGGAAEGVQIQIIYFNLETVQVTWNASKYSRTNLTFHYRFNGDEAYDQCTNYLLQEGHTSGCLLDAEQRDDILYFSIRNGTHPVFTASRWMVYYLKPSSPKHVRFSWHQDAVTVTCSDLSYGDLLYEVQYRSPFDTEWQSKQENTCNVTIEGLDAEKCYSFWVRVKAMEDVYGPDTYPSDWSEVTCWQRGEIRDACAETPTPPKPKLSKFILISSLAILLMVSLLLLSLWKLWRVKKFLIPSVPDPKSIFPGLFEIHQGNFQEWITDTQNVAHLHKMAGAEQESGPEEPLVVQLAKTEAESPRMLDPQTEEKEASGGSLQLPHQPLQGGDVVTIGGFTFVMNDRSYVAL

T3: TSLPR-ECD (extracellular domain of TSLPR) (human, UniProt Q9HC73 23-231)
T3 construct: Obtained by cleavage of a TSLPR-Fc fusion protein expressed in HEK cells; also called analyte 2
T3 sequence: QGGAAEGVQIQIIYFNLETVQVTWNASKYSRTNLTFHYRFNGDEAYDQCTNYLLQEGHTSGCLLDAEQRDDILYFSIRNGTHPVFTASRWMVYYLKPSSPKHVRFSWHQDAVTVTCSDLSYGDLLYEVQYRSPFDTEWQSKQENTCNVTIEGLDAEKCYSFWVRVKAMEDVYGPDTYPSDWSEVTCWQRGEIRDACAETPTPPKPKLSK

T4: Recombinant human TSLPR-Fc (human, UniProt Q9HC73 23-231)
T4 construct: also called recombinant human soluble TSLPR-Fc fusion protein; not shown: Fc part
T4 sequence: T3 sequence

B1: TSLPR-012_189, CDR grafted (antibody, V domains shown)
VH: QVQLVESGGGLVKPGGSLRLSCAASGFSITTSGYYWTWIRQFPGKGLEWMGYIGYNSKTYYNPALKSRITISRDNAKNSLYLQMNSLRAEDTAVYYCARSLYGGYKDAFDSWGQGTLVTVSS
VL: EIVMTQSPATLSVSPGERATLSCRASQSIGTSLHWYQQKPGQAPRLLIKFASRSITGIPARFSGSGSGTEFTLTISSLQSEDFAVYYCQQSPGFPPTFGQGTKLEIKR
notes: Humanized (CDR grafted) variant of hamster TSLPR-012; human kappa and human IgG1 or IgG4(S228P,L235E) appear only as embodiments
B2: TSLPR-012_141, CDR grafted (antibody, V domains shown)
VH: B1 VH
VL: DIQMTQSPSSLSASVGDRVTITCRASQSIGTSLHWYQQKPGKAPKLLIKFASRLQSGVPSRFSGSGSGTDFTLTISSLQPEDFATYYCQQSPGFPPTFGQGTKLEIKR
notes: as for B1
B3: TSLPR-012_75, CDR grafted (antibody, V domains shown)
VH: B1 VH
VL: EIVLTQSPDFQSVTPKEKVTITCRASQSIGTSLHWYQQKPDQSPKLLIKFASRSISGVPSRFSGSGSGTDFTLTINSLEAEDAATYYCQQSPGFPPTFGQGTKLEIKR
notes: as for B1
B4: TSLPR-012_166, CDR grafted (antibody, V domains shown)
VH: QVQLQESGPGLVKPSQTLSLTCTVSGFSITTSGYYWSWIRQHPGKGLEWIGYIGYNSKTYYSPSLKSRVTISRDTSKNQFSLKLSSVTAADTAVYYCARSLYGGYKDAFDSWGQGTLVTVSS
VL: B2 VL with Q38H, K39R, K42E, A43T, L54S, Q55I
notes: as for B1
B5: TSLPR-012 (hamster) (antibody, V domains shown)
VH: QIQLQESGPGLVKPSQSLSLTCSVTGFSITTSGYYWTWIRQFPGKKLEWMGYIGYNSKTYYNPSLKSRISITRDTSKNQFLLHLNSVTTEDTATYYCARSLYGGYKDAFDSWGQGTLVTVSS
VL: DVVLTQTPATLSAIPGERVTMTCKASQSIGTSLHWYQHRPNETPRLLIKFASRSITGIPSRFSGSGSGTDFTLGINNLEAEDFAIYYCQQSPGFPPTFGSGTKLEINR
notes: Parent Armenian hamster monoclonal antibody; the hamster constant regions are not; also called TSLP-012; hamster antibody TSLPR-012
B6: 1D6.C9 (WO2007/112146) (antibody, from another filing, V domains shown)
VH: QIQLGQSGPELKKPGETVKISCKASGYTFTTYGMSWVKQAPGKGLQWMGWINTYSGVPRYADDFKGRFAFSLETSASTAYLQIYNLKNEDTATYFCTREGFITTVVGAAGRFVYWGQGTLVTVSA
VL: DIVMTQSHKFMSTSVGDRVSITCKASQDVGTAVAWYQQKPGQSPKLLIYWASTRHTGVPDRFTGSGSGTDFTLTLNNVQSEDLADYFCQQYSTYPTFGSGTKLELKR

Biological target: T1, Cynomolgous TSLPR (on HEK293 cells)
Assay: FACS on HEK293 cells transiently transfected with Cynomolgous TSLPR
Method: (§1) BA/F3-TSLPR/IL7Rα or Cyno-TSLPR-HEK293 cells were starved from TSLP overnight, harvested by centrifugation, washed once in PBS and re-suspended in FACS buffer (PBS/5% FCS) at 10⁶/ml. 100 μl of cell suspension were incubated in a 96-well round-bottom plate well together with 100 μl of anti-TSLPR antibody solution for 45 minutes on ice. After three washes with FACS buffer, cells were re-suspended in a solution of PE-coupled anti-hamster-F(ab)2 (Dianova, Hamburg, Germany, #127-115-160) (1:200 in FACS buffer) and incubated for 30 minutes on ice. After three further washes cells were re-suspended in 200 μl of FACS buffer and measured on a FACSCanto™ flow cytometer (10,000 cells, flow rate 3).

Row | Binder | EC50 [µg/mL]
1 | B1 | 0.0103
2 | B2 | 0.0097
3 | B3 | 0.0108
4 | B4 | 0.0086
5 | B5 | 0.0118

Biological target: T2, human TSLPR (on cells)
Assay: cell-based or functional assay

Row | Binder | IC50 DC assay (example 7), TARC secretion [µg/mL] | IC50 proliferation (example 4) [µg/mL]
6 | B1 | 0.023 | 0.025
7 | B2 | 0.046 | 0.037
8 | B3 | 0.042 | 0.026
9 | B4 | 0.086 | 0.034
10 | B5 | 0.129 | 0.026

Biological target: T3, TSLPR-ECD (extracellular domain of …)
Assay: SPR (Biacore 3000), antibody captured by anti-IgG, TSLPR-ECD as analyte, 25 °C, 1:1 Langmuir fit
Method: The binding properties of monoclonal anti-TSLPR antibodies and according to WO 2007/112146 were analyzed by surface plasmon resonance (SPR) technology using a Biacore 3000 instrument. The affinity was determined using an assay setup with capturing antibodies. These capturing antibodies (goat anti-human-IgG, goat anti-hamster-IgG) were immobilized on the surface of a CM5 biosensorchip using amine coupling chemistry. The capturing antibodies were injected in sodium acetate buffer, pH 5.0 at a concentration of 5 μg/ml aiming for a surface density of approx 1000 RU. Remaining reactive groups were inactivated by an injection of 1 M ethanolamine/HCl pH 8.5. Running buffer was HBS-P. The anti-TSLPR antibodies (analyte 1) were diluted in HBS-P to a concentration of 25 nM and injected at a flow rate of 5 μl/min for 3 minutes, resulting in a binding signal of 100-400RU dependent on the antibodies applied. The extracellular domain of TSLPR, TSLPR-ECD, obtained by cleavage of a TSLPR-Fc fusion protein expressed in HEK cells (analyte 2), was injected in concentrations ranging from 0-50 nM at a flow rate of 20 μl/min. The contact time (association phase) was 3 min for TSLPR followed by 5 minutes of dissociation. Regeneration solution 10 mM glycine HCl pH1.5 or 10 mM glycine HCl pH1.7 was injected twice at a flow rate of 10 μl/min for 1 min to remove any bound protein after each binding cycle. All interactions were performed at 25° C. (standard temperature). Signals were detected at a detection rate of 1 signal/second. The signals from a reference flow cell (FC1: same capturing antibody and addition of control antibody) and from blank buffer injections were subtracted and data were evaluated. All binding curves were fitted to a 1:1 Langmuir binding model. Association rate constant (ka), dissociation rate constant (kd) and the dissociation equilibrium constant (KD) were calculated accordingly.

Row | Binder | Kd [nM]
11 | B1 | 0.6
12 | B2 | 0.87
13 | B3 | 0.5
14 | B4 | 2.45
15 | B5 | 0.25

Biological target: T2, human TSLPR (on cells)
Assay: FACS on BA/F3 cells stably overexpressing human TSLPR and IL-7Rα
Method: as §1

Row | Binder | EC50 [µg/mL]
16 | B1 | 0.0149
17 | B2 | 0.0133
18 | B3 | 0.0157
19 | B4 | 0.0118
20 | B5 | 0.0156

Biological target: TSLPR-ECD (extracellular domain of TSLPR) (human) (UniProt Q9HC73)
Assay: SPR (Biacore 3000), antibody captured by anti-IgG, TSLPR-ECD as analyte, 25 °C, 1:1 Langmuir fit

Row | Binder | Kd [nM]
21 | B6 | 2.97

Biological target: T2, human TSLPR (on cells)
Assay: cell-based or functional assay
Remark: another data set of the same source

Row | Binder | IC50, IL-5 release in Th2 polarization assay [nM] | IC50, IL-13 release in Th2 polarization assay [nM] | IC50, TARC secretion by human dendritic cells stimulated with TSLP [nM] | average IC50, mast cell cytokine production (IL-13, IL-5, GMCSF) [nM]
22 | B2 | 1.62 | 2.57 | 2.4 | 0.04 to 0.06

Biological target: T4, Recombinant human TSLPR-Fc
Assay: blocking ELISA: antibody on coated TSLPR-Fc, then TSLP + IL7Rα-Fc; TSLP binding detected
Method: Recombinant human TSLPR-Fc was coated to 96-well Nunc Maxisorp™ plate wells by incubating 50 μl of a 0.2 μg/ml solution of TSLPR-Fc in PBS per well for 1 h at RT. Subsequently the wells were blocked with 1% Crotein™ C in PBS (blocking buffer) for 1 h at RT, followed by two washes with wash buffer (ice-cold PBS/0.05% TWEEN® 20). 50 μl of anti-TSLPR antibody solution (antibodies and according to WO 2007/112146) were then added to the wells and incubated for 2 h at 4° C., followed by four wash steps. After addition of 50 μl of a mixture of human recombinant TSLP (12.5 ng/ml) and human recombinant IL7Rα-Fc (1 μg/ml) in blocking buffer, the plate was shaken for 1 h at 4° C., followed by further four wash steps. TSLP binding was detected by incubation with 50 μl of biotinylated anti-TSLP antibody (0.08 μg/ml in blocking buffer), followed by four washes and incubation with 50 μl of streptavidin-HRP (0.25 μg/ml in blocking buffer) per well. After another four washing steps, color was developed by incubation with 50 μl of 3,3,5,5-Tetramethylbenzidine substrate, followed by addition of 50 μl of 1 N HCl. Absorbance was read out at 450 and 620 nm.

Row | Binder | IC50 [µg/mL]
23 | B6 | 0.0152
24 | B1 | 0.0136
25 | B2 | 0.0104
26 | B3 | 0.0134
27 | B4 | 0.0122
28 | B5 | 0.0088

Biological target: T2, human TSLPR (on cells)
Assay: cell-based or functional assay
Remark: another data set of the same source

Row | Binder | IC50 proliferation (example 4) [µg/mL]
29 | B6 | 0.084
